Measurements from patent publication US20260152553A1.

Target: CD19/CD20 bispecific CAR (Leu16 scFv-(G4S)4-FMC63 scFv-IgG4 hinge-CD28 TM-4-1BB-CD3 zeta)
Test: flow cytometry, staining of T cells (donor 1917) transduced with CD19/20 CAR lentiviral vector

CD19/CD20 bispecific CAR (Leu16 scFv-(G4S)4-FMC63 scFv-IgG4 hinge-CD28 TM-4-1BB-CD3 zeta), sequence (chain, as listed by the source): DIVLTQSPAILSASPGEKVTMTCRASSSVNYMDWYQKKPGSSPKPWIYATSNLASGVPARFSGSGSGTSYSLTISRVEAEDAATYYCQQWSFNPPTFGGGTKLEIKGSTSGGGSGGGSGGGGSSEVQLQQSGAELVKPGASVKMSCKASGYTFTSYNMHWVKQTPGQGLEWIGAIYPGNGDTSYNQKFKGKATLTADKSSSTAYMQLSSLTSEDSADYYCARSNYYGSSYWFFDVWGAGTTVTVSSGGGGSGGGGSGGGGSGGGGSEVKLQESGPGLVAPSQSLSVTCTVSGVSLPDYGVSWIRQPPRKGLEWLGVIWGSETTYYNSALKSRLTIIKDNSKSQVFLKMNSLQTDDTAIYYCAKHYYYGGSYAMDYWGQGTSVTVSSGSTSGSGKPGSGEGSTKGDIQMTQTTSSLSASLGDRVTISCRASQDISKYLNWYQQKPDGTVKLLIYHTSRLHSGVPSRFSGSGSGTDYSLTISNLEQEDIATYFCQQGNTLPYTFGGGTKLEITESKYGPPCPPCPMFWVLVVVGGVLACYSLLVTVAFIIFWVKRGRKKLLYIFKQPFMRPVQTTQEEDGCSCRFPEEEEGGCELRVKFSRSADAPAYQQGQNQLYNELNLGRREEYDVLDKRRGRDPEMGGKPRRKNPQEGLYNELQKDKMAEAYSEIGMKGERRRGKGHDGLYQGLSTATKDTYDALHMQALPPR

% Positive Cells: 59.6%
Substance: Byotinilated anti-FMC63 (Acros) (antibody)
